Experimental data from US20050244915.
Substitutions are numbered along the chain they refer to.

Experiments:
[1] = molecular target: GST HIF-1α 775-826 N803E, Q16665
[2] = molecular target: GST HIF-1α 577-826, Q16665
HIF-1α 775-826, Q16665 = molecular target: T1, HIF-1α 775-826, Q16665
T1 chain: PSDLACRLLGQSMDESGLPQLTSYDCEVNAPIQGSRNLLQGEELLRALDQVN

[3] = molecular target: GST HIF-1α 775-826 N803D, Q16665
[4] = molecular target: GST HIF-1α 775-826 [GST: P08515]
GST HIF-1α 775-826 N803A = molecular target: T2, GST HIF-1α 775-826 N803A
T2 chain: T1 chain with N29A

[5] = molecular target: GST HIF-1α 775-826 N803Q, Q16665
[6] = molecular target: T3, GST HIF-1α 530-652, Q16665
T3 chain: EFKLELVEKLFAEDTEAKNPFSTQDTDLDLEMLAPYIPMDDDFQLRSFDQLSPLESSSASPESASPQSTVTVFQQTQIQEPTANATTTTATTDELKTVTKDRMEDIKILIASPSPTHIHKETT

[7] = molecular target: T4, His6-HIF-1α 530-698, Q16665
T4 chain: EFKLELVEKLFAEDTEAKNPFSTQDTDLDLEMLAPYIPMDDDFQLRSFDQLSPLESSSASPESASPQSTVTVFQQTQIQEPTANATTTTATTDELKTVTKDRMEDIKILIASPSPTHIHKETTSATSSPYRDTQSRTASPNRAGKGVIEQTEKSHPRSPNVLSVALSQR

[8] = molecular target: T5, His6-HIF-1α 344-503, Q16665
T5 chain: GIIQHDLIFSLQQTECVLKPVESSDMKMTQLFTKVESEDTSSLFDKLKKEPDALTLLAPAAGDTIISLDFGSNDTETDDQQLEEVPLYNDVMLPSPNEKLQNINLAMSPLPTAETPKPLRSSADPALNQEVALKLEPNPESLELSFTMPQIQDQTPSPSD

B1: Factor Inhibiting HIF (FIH), recombinant (protein)
chain: MAATAAEAVASGSGEPREEAGALGPAWDESQLRSYSFPTRPIPRLSQSDPRAEELIENEEPVVLTDTNLVYPALKWDLEYLQENIGNGDFSVYSASTHKFLYYDEKKMANFQNFKPRSNREEMKFHEFVEKLQDIQQRGGEERLYLQQTLNDTVGRKIVMDFLGFNWNWINKQQGKRGWGQLTSNLLLIGMEGNVTPAHYDEQQNFFAQIKGYKRCILFPPDQFECLYPYPVHHPCDRQSQVDFDNPDYERFPNFQNVVGYETVVGPGDVLYIPMYWWHHIESLLNGGITITVNFWYKGAPTPKRIEYPLKAHQKVAIMRNIEKMLGEALGNPQEVGPLLNTMIKGRYN
**Q.** B1 was tested. Which % activity relative to 775-826 peptide [1] did it give?
**A.** < 0.01%

**Q.** And the CO2 released [1]?
**A.** < 0.001 nmol

**Q.** And the % activity relative to 775-826 peptide [2]?
**A.** 67%

**Q.** And the CO2 released [2]?
**A.** 0.81 nmol

**Q.** What about the % activity relative to 775-826 peptide (HIF-1α 775-826, Q16665) of the same protein?
**A.** 100%

**Q.** What about the CO2 released (HIF-1α 775-826, Q16665) of the same protein?
**A.** 2.8 nmol

**Q.** And the “Km(peptide), 2-OG turnover assay” value (HIF-1α 775-826, Q16665)?
**A.** Km(peptide)=10 µM

**Q.** What about the “Vmax, 2-OG turnover assay” value (HIF-1α 775-826, Q16665) of the same protein?
**A.** Vmax=0.3 µmol/min/mg

**Q.** And the “mass increase of the substrate after reaction (mass spectrometry)” value (HIF-1α 775-826, Q16665)?
**A.** an increase in mass of 16Da was observed after HPLC isolation of product

**Q.** What about the % activity relative to 775-826 peptide [3] of the same protein?
**A.** 7%

**Q.** What about the CO2 released [3] of the same protein?
**A.** 0.22 nmol

**Q.** What about the % activity relative to 775-826 peptide [4] of the same protein?
**A.** 96%

**Q.** What about the CO2 released [4] of the same protein?
**A.** 2.7 nmol

**Q.** And the % activity relative to 775-826 peptide (GST HIF-1α 775-826 N803A)?
**A.** < 0.01%

**Q.** And the CO2 released (GST HIF-1α 775-826 N803A)?
**A.** < 0.001 nmol

**Q.** And the % activity relative to 775-826 peptide [5]?
**A.** < 0.01%

**Q.** And the CO2 released [5]?
**A.** < 0.001 nmol

**Q.** What about the % activity relative to 775-826 peptide [6] of the same protein?
**A.** 1.8%

**Q.** And the CO2 released [6]?
**A.** 0.05 nmol

**Q.** What about the % activity relative to 775-826 peptide [7] of the same protein?
**A.** < 0.01%

**Q.** And the CO2 released [7]?
**A.** < 0.001 nmol

**Q.** What about the % activity relative to 775-826 peptide [8] of the same protein?
**A.** < 0.01%

**Q.** And the CO2 released [8]?
**A.** < 0.001 nmol
